B1: human ephrin-A5 receptor-binding domain (domain or fragment)
chain: KAVADRYAVYWNSSNPRFQRGDYHIDVCINDYLDVFCPHYEDSVPEDKTERYVLYMVNFDGYSACDHTSKGFKRWECNRPHSPNGPLKFSEKFQLFTPFSLGFEFRPGREYFYISSAIPDNGRRSCLKLKVFVRPTNSCMK
modifications: deglycosylated with PNGase F
notes: also called ephrin-A5 ligand
B2: human EphA3 ligand-binding domain (domain or fragment)
chain: EVNLLDSKTIQGELGWISYPSHGWEEISGVDEHYTPIRTYQVCNVMDHSQNNWLRTNWVPRNSAQKIYVELKFTLRDCNSIPLVLGTCKETFNLYYMESDDDHGVKFREHQFTKIDTIAADESFTQMDLGDRILKLNTEIREVGPVNKKGFYLAFQDVGACVALVSVRVYFK
notes: also called EphA3 LBD; EphA3 receptor; not shown: GST, N-terminal, cleaved; 10xHis, N-terminal, cleaved

Key:
[1] = target: B2; experiment: ITC; conditions: both partners purified
[2] = target: B1; experiment: ITC; conditions: both partners purified

Binder | Kd [1] | dH [2]
B1 | 9 nM | 
B2 |  | -2.15 kcal/mol
